From patent publication US20220249563A1 (LEGEND BIOTECH IRELAND, published 2022)

T1: extracellular domain of human DLL3 protein (aa27-466) having an N-terminal FLAG tag (AdipoGen, AG-40B-0151) (human, UniProt Q9NYJ7 27-466)
T1 construct: range 27-466; also called DLL3 ECD protein
T1 sequence (looked up): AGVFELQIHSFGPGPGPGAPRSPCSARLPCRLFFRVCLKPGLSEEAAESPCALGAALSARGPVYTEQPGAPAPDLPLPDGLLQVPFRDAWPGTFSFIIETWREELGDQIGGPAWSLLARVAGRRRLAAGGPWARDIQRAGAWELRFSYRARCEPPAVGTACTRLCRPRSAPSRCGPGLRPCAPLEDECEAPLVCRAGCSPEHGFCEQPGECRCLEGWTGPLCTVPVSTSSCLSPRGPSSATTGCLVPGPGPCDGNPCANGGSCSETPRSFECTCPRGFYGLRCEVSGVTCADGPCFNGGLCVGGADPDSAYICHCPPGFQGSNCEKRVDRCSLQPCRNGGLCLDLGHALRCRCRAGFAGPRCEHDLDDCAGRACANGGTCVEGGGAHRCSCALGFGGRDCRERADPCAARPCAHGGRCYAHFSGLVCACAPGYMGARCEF


biological target: T1, extracellular domain of human DLL3 …; assay: SPR (Biacore), same procedure as for the HCAbs, human DLL3 as analyte

| koff [s⁻¹] | kon [M⁻¹ s⁻¹] | Kd [nM] | Binder |
| --- | --- | --- | --- |
| 0.000559 | 66000 | – | AS56704 scFv (scFv, V domains shown, also called A556704) VH: EVQLVESGGGLVQPGGSLRLSCAASGFNISSSYMHWVRQAPGKGLEWVAYIYPSYGYTSYADSVKGRFTISADTSKNTAYLQMNSLRAEDTAVYYCARGGYYYHGMDYWGQGTLVTVSS VL: DIQMTQSPSSLSASVGDRVTITCRASQSVSSAVAWYQQKPGKAPKLLIYSASSLYSGVPSRFSGSRSGTDFTLTISSLQPEDFATYYCQQASWSPITFGQGTKVEIK |
| 0.003 | 130000 | 23 | AS56788 scFv (scFv, V domains shown, also called A556788) VH: EVQLVESGGGLVQPGGSLRLSCAASGFNISSYSMHWVRQAPGKGLEWVAYISSYYGYTYYADSVKGRFTISADTSKNTAYLQMNSLRAEDTAVYYCARYSYYYGMDYWGQGTLVTVSS VL: DIQMTQSPSSLSASVGDRVTITCRASQSVSSAVAWYQQKPGKAPKLLIYSASSLYSGVPSRFSGSRSGTDFTLTISSLQPEDFATYYCQQHYAPSLITFGQGTKVEIK |

biological target: T1, extracellular domain of human DLL3 …; assay: SPR (Biacore), captured antibody, human DLL3 as analyte
Excerpt: (§1) The camel and humanized sdAb sequences were fused with human IgG1 hinge and Fc, resulting the chimeric and humanized HCAb sequences. The DNAs encoding these HCAbs were synthesized and inserted into pTT5 vector. HCAb expression plasmids were used to transfect HEK293 cells. Crude HCAb proteins secreted to the medium were subjected to SPR affinity measurement as follows: briefly, capturing antibody anti-human Fc pAb (GE healthcare) was immobilized on a Biacore™ CM5 chip to approximately 6,000 RU using EDC-activated amine coupling chemistry. HCAb of interest was captured for 300 seconds onto the sensorchip surface. Human DLL3 (AdipoGen, AG-40B-0151) was flowed over the sensorchip surface at a series of increasing concentrations. Association and dissociation phases were monitored. Captured antibody and antigen were removed between cycles using 10 mM Glycine-HCl, pH 2.0 buffer in order to ensure a fresh binding surface for the antigen. The resulting sensorgrams were fit globally using a 1:1 binding model in order to calculate on- and off-rates (ka and kd, respectively), as well as affinities (KD).

| Kd [nM] | koff [s⁻¹] | kon [M⁻¹ s⁻¹] | Binder |
| --- | --- | --- | --- |
| 6.7 | 0.00096 | 140000 | AS64047 HCAb (Fc fusion, not shown: a dimerising Fc or GST) QVHLVESGGGSVQAGGSLRLSCAASQYVYRWDLMGWFRQAPGKEREAVAAVYTGDGITYYADSVKGRFSISQDNAKNTVYLQMNSLKPEDTGMYFCAAGFVSGGRWNQSYRYKYWGQGTQVTVSS |
| 47 | 0.17 | 3.6e+06 | AS63931 HCAb (Fc fusion, not shown: a dimerising Fc or GST) EVQLAESGGGSVQAGGSLRLSCAGSFSGYGVSTMAWFRQAPGKEREGVAAITVGSGNTYYADSVTGRFTISRDNAKRTVYLQMNSLKPEDTAMYYCAAGWLSGGSWHVPGRYNYWGQGTQVTVSS |
| 4 | 0.00041 | 100000 | AS64052 HCAb (Fc fusion, not shown: a dimerising Fc or GST) QVHLMESGGGSVQAGGSLRLSCAASGYTYRSNFMGWFRQAPGKEREGIATIHSGVATTYYADSVKGRFTISQDNAKNTVYLQMNSLKPEDTAMYYCAAGGPPANADRWYPLRPPGYNYWGQGTQVTVSS |

The remaining lines, values behind:

| Binder | Kd [nM] | koff [s⁻¹] | kon [M⁻¹ s⁻¹] |
| --- | --- | --- | --- |
| AS64617 HCAb (Fc fusion, not shown: a dimerising Fc or GST) QVQLVESGGGSVQAGGSLRLSCAASGYTDRCSMAWYRQAPGKERELVSRISTSGFTNYAASVKGRFTISQDNAKNTVYLQMNSLNPGDTGMYYCAIIVGRTCSLNYWGNGILVTVSS | 20 | 0.0038 | 190000 |
| AS64062 HCAb (Fc fusion, not shown: a dimerising Fc or GST) QVRLVESGGGSVQVGGSLRLSCAASRSPYSSSRCMGWFRQAPGKEREGVAALYTGGGSTSYADSVKGRFTISQDNAKNTVYLQMNSLKPEDTAMYYCAAVVPRGGSCRLDERGYYHWGQGTQVTVSS | 6.9 | 0.00071 | 100000 |
| AS69443 HCAb (Fc fusion, not shown: a dimerising Fc or GST) EVQLAESGGGSVQAGGSLRLSCSASGFTFDDSDMAWYRQAPGDGCDLVSTISSDGSTYYADSVKGRFTISQDNAKNTVYLQMHSLKPEDTAVYYCAADFLTGFYYSDSPHPAPCSASDFGYWGQGTQVTVSS | 0.96 | 9e-05 | 94000 |

biological target: T1, extracellular domain of human DLL3 …; assay: SPR (Biacore), HCAb captured by anti-human Fc, human DLL3 as analyte, 1:1 fit
Excerpt: as §1

| Kd [nM] | koff [s⁻¹] | kon [M⁻¹ s⁻¹] | Binder |
| --- | --- | --- | --- |
| 6 | 0.00094 | 160000 | AS64511VH4 HCAb (Fc fusion, not shown: a dimerising Fc or GST, humanized sdAb fused with human IgG1 hinge and Fc (humanized HCAb), crude HEK293 medium) EVQLVESGGGLVQPGGSLRLSCAASRATYSTNYISWFRQAPGKGLEAVATITTGDGETAYADSVKGRFTISRDNAKNSLYLQMNSLRAEDTAVYYCAANLRIGGDWFDGRDFRAWGQGTLVTVSS |
| 3 | 0.0004 | 130000 | AS64511 HCAb (Fc fusion, not shown: a dimerising Fc or GST, camel sdAb fused with human IgG1 hinge and Fc (chimeric HCAb), crude HEK293 medium) QVQLVESGGGSVQAGGSLRLSCAASRATYSTNYISWFRQAPGKEREAVATITTGDGETAYADSVKGRFTISRDNAKNTVYLQMNSLKPEDTAMYYCAANLRIGGDWFDGRDFRAWGQGTQVTVSS |
| 16 | 0.0064 | 390000 | AS63997 HCAb (Fc fusion, not shown: a dimerising Fc or GST, camel sdAb fused with human IgG1 hinge and Fc (chimeric HCAb), crude HEK293 medium) QVRLVESGGGSVQAGGSLRLSCAGSFSGYGVSTMAWFRQAPGKEREGVAAITVGSGNTYYADSVKGRFTISRDNAKRTVFLQMNSLKPEDTAMYYCAVGYLSGGSWDVPGRYNYWGQGTQVTVSS |
| 8.4 | 0.0056 | 670000 | AS64380 HCAb (Fc fusion, not shown: a dimerising Fc or GST, camel sdAb fused with human IgG1 hinge and Fc (chimeric HCAb), crude HEK293 medium) EVQLVESGGGSVQAGGSLTLSCEASGNTYSSNYMGWFRQAPGKEREEVAVIYTRGGHTYYVDSVRGRFTISQDNAKNTVYLQMNSLKPEDTAMYYCAASSRHRLGLNNPRDYDYWGQGTQVTVSS |
| 26 | 0.0015 | 59000 | AS64380VH5 HCAb (Fc fusion, not shown: a dimerising Fc or GST, humanized sdAb fused with human IgG1 hinge and Fc (humanized HCAb), crude HEK293 medium) EVQLVESGGGLVQPGGSLRLSCAASGNTYSSNYMGWFRQAPGKGLEEVAVIYTRGGHTYYVDSVRGRFTISQDNAKNSLYLQMNSLRAEDTAVYYCAASSRHRLGLNNPRDYDYWGQGTLVTVSS |

The remaining lines, values behind:

| Binder | Kd [nM] | koff [s⁻¹] | kon [M⁻¹ s⁻¹] |
| --- | --- | --- | --- |
| AS63997VH4 HCAb (Fc fusion, not shown: a dimerising Fc or GST, humanized sdAb fused with human IgG1 hinge and Fc (humanized HCAb), crude HEK293 medium) QVQLVESGGGVVQPGGSLRLSCAASFSGYGVSTMAWFRQAPGKGLEGVAAITVGSGNTYYADSVKGRFTISRDNSKNTLYLQMNSLRAEDTAVYYCAVGYLSGGSWDVPGRYNYWGQGTLVTVSS | 21 | 0.018 | 840000 |
| AS64511VH6 HCAb (Fc fusion, not shown: a dimerising Fc or GST, humanized sdAb fused with human IgG1 hinge and Fc (humanized HCAb), crude HEK293 medium) EVQLVESGGGLVQPGGSLRLSCAASRATYSTNYISWFRQAPGKGREAVATITTGDGETAYADSVKGRFTISRDNAKNSVYLQMNSLRAEDTAMYYCAANLRIGGDWFDGRDFRAWGQGTLVTVSS | 3.4 | 0.00048 | 140000 |
| AS64511VH5 HCAb (Fc fusion, not shown: a dimerising Fc or GST, humanized sdAb fused with human IgG1 hinge and Fc (humanized HCAb), crude HEK293 medium) EVQLVESGGGLVQPGGSLRLSCAASRATYSTNYISWFRQAPGKGLEAVATITTGDGETAYADSVKGRFTISRDNAKNSVYLQMNSLRAEDTAMYYCAANLRIGGDWFDGRDFRAWGQGTLVTVSS | 2.9 | 0.00047 | 160000 |
| AS63997VH6 HCAb (Fc fusion, not shown: a dimerising Fc or GST, humanized sdAb fused with human IgG1 hinge and Fc (humanized HCAb), crude HEK293 medium) QVQLVESGGGVVQPGGSLRLSCAASFSGYGVSTMAWFRQAPGKGREGVAAITVGSGNTYYADSVKGRFTISRDNSKNTVYLQMNSLRAEDTAMYYCAVGYLSGGSWDVPGRYNYWGQGTLVTVSS | 33 | 0.06 | 1.8e+06 |
| AS63997VH5 HCAb (Fc fusion, not shown: a dimerising Fc or GST, humanized sdAb fused with human IgG1 hinge and Fc (humanized HCAb), crude HEK293 medium) QVQLVESGGGVVQPGGSLRLSCAASFSGYGVSTMAWFRQAPGKGLEGVAAITVGSGNTYYADSVKGRFTISRDNSKNTVYLQMNSLRAEDTAMYYCAVGYLSGGSWDVPGRYNYWGQGTLVTVSS | 37 | 0.021 | 580000 |
| AS64380VH4 HCAb (Fc fusion, not shown: a dimerising Fc or GST, humanized sdAb fused with human IgG1 hinge and Fc (humanized HCAb), crude HEK293 medium) EVQLVESGGGLVQPGGSLRLSCAASGNTYSSNYMGWFRQAPGKGLEEVAVIYTRGGHTYYVDSVRGRFTISRDNAKNSLYLQMNSLRAEDTAVYYCAASSRHRLGLNNPRDYDYWGQGTLVTVSS | 14 | 0.0044 | 310000 |
| AS64380VH6 HCAb (Fc fusion, not shown: a dimerising Fc or GST, humanized sdAb fused with human IgG1 hinge and Fc (humanized HCAb), crude HEK293 medium) EVQLVESGGGLVQPGGSLRLSCAASGNTYSSNYMGWFRQAPGKGLEEVAVIYTRGGHTYYVDSVRGRFTISQDNAKNSVYLQMNSLRAEDTAMYYCAASSRHRLGLNNPRDYDYWGQGTLVTVSS | 17 | 0.0015 | 88000 |
